Target: T1, purified, recombinant Yama/caspase-3, P42574
T1 chain: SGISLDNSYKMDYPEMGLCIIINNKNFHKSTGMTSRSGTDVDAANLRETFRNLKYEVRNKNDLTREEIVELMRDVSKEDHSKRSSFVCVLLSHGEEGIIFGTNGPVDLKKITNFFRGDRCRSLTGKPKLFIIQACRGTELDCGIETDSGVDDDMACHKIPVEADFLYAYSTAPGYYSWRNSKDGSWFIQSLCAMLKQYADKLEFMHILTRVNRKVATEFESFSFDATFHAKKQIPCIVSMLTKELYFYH
Assay: recombinant enzyme labelled with biotinylated inhibitor, blot
Conditions: remark: other sources report otherwise

YVAD (modifications not checked) [biotin-YVADamk]
fold more enzyme needed for detection: 100 times
